Data taken from paper PMC9100969, “Structure-Guided Engineering of a Family IV Cold-Adapted Esterase Expands Its Substrate Range” (International Journal of Molecular Sciences, 2022).

Assays:
Test in all cases: purified protein
Assay type in all cases: biochemical, Sutcliffiella cohnii
Settings in all cases: 50 mM Tris-HCl pH 8.0, 20 °C
purified protein [1] = substrate: CCCC(=O)Oc1ccc([N+](=O)[O-])cc1
purified protein [2] = substrate: CC(=O)Oc1ccc([N+](=O)[O-])cc1
purified protein [3] = substrate: CCCCCC(=O)Oc1ccc([N+](=O)[O-])cc1
purified protein [4] = substrate: CCCCCCCC(=O)Oc1ccc([N+](=O)[O-])cc1

B1: EstN7 (Sutcliffiella cohnii; W206A) (protein)
chain: MKNRIDPELRAMLDMFPPLNLDDVQATRKAMEEAAQLTELPVDEEVVVSNRMVPGPEDNPYVRVRIYEPKEKIEKLPGLLWIHGGGYVLGAPEGDDLLCQRFVKEANCVVVSVDYRLAPEHPYPAPLEDCYAALQWFAKKVDELGVDASRIGVGGQSAGGGLTAALALLARDRKGPELCFQMPLYPMIDDKNNSPSSLEITGNLIANHDLNEKGWSMYLDGKNGTDDVPVHAAPARATDLTNLPYTYTCVGQLDPFRDETLDYVKRLCQAGVDVEFHLYPGAYHGFETLNPAAAVSQRALAEYVGAVKHVLNREKVVERK
notes: recombinant, purified from E. coli BL21(DE3); dimer; catalytic triad S157, D254, H284
Km (purified protein [1]): 1200 ± 550 µM | kcat (purified protein [1]): 8 ± 1 s⁻¹ | kcat/Km (purified protein [1]): 6670 M⁻¹ s⁻¹ | Km (purified protein [2]): 1300 ± 140 µM | kcat (purified protein [2]): 1.5 ± 0.07 s⁻¹ | kcat/Km (purified protein [2]): 1190 M⁻¹ s⁻¹ | Km (purified protein [3]): 1100 ± 70 µM | kcat (purified protein [3]): 3.8 ± 0.07 s⁻¹ | kcat/Km (purified protein [3]): 3350 M⁻¹ s⁻¹

B2: EstN7 (Sutcliffiella cohnii; N211A) (protein)
chain: MKNRIDPELRAMLDMFPPLNLDDVQATRKAMEEAAQLTELPVDEEVVVSNRMVPGPEDNPYVRVRIYEPKEKIEKLPGLLWIHGGGYVLGAPEGDDLLCQRFVKEANCVVVSVDYRLAPEHPYPAPLEDCYAALQWFAKKVDELGVDASRIGVGGQSAGGGLTAALALLARDRKGPELCFQMPLYPMIDDKNNSPSSLEITGNLIWNHDLAEKGWSMYLDGKNGTDDVPVHAAPARATDLTNLPYTYTCVGQLDPFRDETLDYVKRLCQAGVDVEFHLYPGAYHGFETLNPAAAVSQRALAEYVGAVKHVLNREKVVERK
notes: as for B1
Km (purified protein [1]): 2000 ± 200 µM | kcat (purified protein [1]): 15 ± 0.5 s⁻¹ | kcat/Km (purified protein [1]): 7500 M⁻¹ s⁻¹ | Km (purified protein [2]): 750 ± 1 µM | kcat (purified protein [2]): 280.5 ± 0.07 s⁻¹ | kcat/Km (purified protein [2]): 374000 M⁻¹ s⁻¹ | Km (purified protein [3]): 370 ± 50 µM | kcat (purified protein [3]): 2.3 ± 0.2 s⁻¹ | kcat/Km (purified protein [3]): 6280 M⁻¹ s⁻¹

B3: EstN7 (Sutcliffiella cohnii) (protein)
chain: MKNRIDPELRAMLDMFPPLNLDDVQATRKAMEEAAQLTELPVDEEVVVSNRMVPGPEDNPYVRVRIYEPKEKIEKLPGLLWIHGGGYVLGAPEGDDLLCQRFVKEANCVVVSVDYRLAPEHPYPAPLEDCYAALQWFAKKVDELGVDASRIGVGGQSAGGGLTAALALLARDRKGPELCFQMPLYPMIDDKNNSPSSLEITGNLIWNHDLNEKGWSMYLDGKNGTDDVPVHAAPARATDLTNLPYTYTCVGQLDPFRDETLDYVKRLCQAGVDVEFHLYPGAYHGFETLNPAAAVSQRALAEYVGAVKHVLNREKVVERK
notes: as for B1
Km (purified protein [1]): 57 ± 2 µM | kcat (purified protein [1]): 0.32 ± 0.005 s⁻¹ | kcat/Km (purified protein [1]): 5610 M⁻¹ s⁻¹ | Km (purified protein [2]): 50 ± 7 µM | kcat (purified protein [2]): 760 ± 3.5 s⁻¹ | kcat/Km (purified protein [2]): 1.52e+07 M⁻¹ s⁻¹

B4: EstN7 (Sutcliffiella cohnii; M187A/N211A) (protein)
chain: MKNRIDPELRAMLDMFPPLNLDDVQATRKAMEEAAQLTELPVDEEVVVSNRMVPGPEDNPYVRVRIYEPKEKIEKLPGLLWIHGGGYVLGAPEGDDLLCQRFVKEANCVVVSVDYRLAPEHPYPAPLEDCYAALQWFAKKVDELGVDASRIGVGGQSAGGGLTAALALLARDRKGPELCFQMPLYPAIDDKNNSPSSLEITGNLIWNHDLAEKGWSMYLDGKNGTDDVPVHAAPARATDLTNLPYTYTCVGQLDPFRDETLDYVKRLCQAGVDVEFHLYPGAYHGFETLNPAAAVSQRALAEYVGAVKHVLNREKVVERK
notes: as for B1
Km (purified protein [4]): 950 ± 20 µM | kcat (purified protein [4]): 0.45 ± 0.02 s⁻¹ | kcat/Km (purified protein [4]): 473 M⁻¹ s⁻¹ | Km (purified protein [1]): 370 ± 80 µM | kcat (purified protein [1]): 17.6 ± 2.1 s⁻¹ | kcat/Km (purified protein [1]): 46800 M⁻¹ s⁻¹ | Km (purified protein [2]): 1100 ± 70 µM | kcat (purified protein [2]): 361 ± 0.14 s⁻¹ | kcat/Km (purified protein [2]): 328000 M⁻¹ s⁻¹ | Km (purified protein [3]): 1200 ± 10 µM | kcat (purified protein [3]): 24.5 ± 0.7 s⁻¹ | kcat/Km (purified protein [3]): 20400 M⁻¹ s⁻¹
